Measured values: US20230414780A1 (VECT HORUS, published 2023)
Residue numbers refer to the chain shown, from its start.

B1: B8^V3 (VHH)
VHH: EVQLVESGGGVVQPGGSLRLSCAASGEIFSINFMRWYREAPGKQREWVAGFTRDGSTNYPDSAKGRFTISRDNAKNTVYLQIDSLKPEDTAVYYCYMLDTWGQGTQVTVSS
B2: B8^V22 (VHH)
VHH: B1 VHH with F33Q, E39Q
B3: B7 (VHH)
VHH: QVQLVQSGGGLVQAGGSLTLSCTASGRPLSDYPMGWFRRAPEKERELVASISRTGDGTYYADGMRGRFTISRDNSENTVSLQMNNLKPEDTAVYYCGAGINPTKYWGQGTQVTVSS
B4: C10a (VHH)
VHH: EVQLVESGGGLVQAGDSLRLSCAASGFASHLYAIGWFRQAPGKEREKVSCISSNDGSTYYADSVKGRFTISRDTVKDMVYLQMNSLKPEDTAVYYCATDLTVHCFMAEYDWWGQGTQVTVSS
B5: H1 (VHH)
VHH: B4 VHH with A14P, D16G
notes: also called phage-H1 (as tracer)
B6: VHH A11 (C5^V11) (VHH)
VHH: EVQLVESGGGVVQPGGSLKLSCVASGTDFSINYIRWYRQAPGKQREFVAGFTATGNTNYADSMKGRFTISRDNTKNAVYLQIDSLKPEDTAVYYCYMLDKWGQGTQVTVSS
B7: C5^V29 (VHH)
VHH: B6 VHH with T27A, Y33F, N56H
B8: VHH A15 (C5^V15) (VHH)
VHH: B6 VHH with Y33F, Y96F
B9: E4 (VHH)
VHH: EVQLVESGGGLVQAGDSLRLSCTASGLPLSNYPMGWFRRAPGKERELIASISRTGDGTYYADSSVKGRFTISRDNAENTVSLQMNSLKPEDTAVYYCGAGINPTKYWGQGTQVTVSS
B10: C3 (VHH)
VHH: EVQLVQSGGGLVQAGGSLRLSCAASGRDFSDTSMAWHRQAPGKERLWVAGIRSGSTSTSYADSVKGRFTISRDDAKNTVYLQMDNLTPEDTAVYFCYSKGYWGQGTQVTVSS
B11: F2a (VHH)
VHH: EVQLVESGGGLVQPGESLRLSCTASESISIYGVGWYRQAPGEQRVLVAHLKRNGLTEYKDSVKGRFTISRDNARNTIYLEMKNLKPEDTAIYYCNTALGSVLPWGRGTQVTVSS
B12: C5^V27 (VHH)
VHH: B6 VHH with T27A
B13: VHH A3 (C5^V3) (VHH)
VHH: B6 VHH with Y33F, T54A
B14: VHH A4 (C5^V4) (VHH)
VHH: B6 VHH with Y33F, N56A
B15: VHH A2 (C5^V2) (VHH)
VHH: B6 VHH with D28A, Y33F
B16: VHH A9 (C5^V9) (VHH)
VHH: B6 VHH with Y33F, K100A
B17: C12b (VHH)
VHH: QVQLVQSGGGLVQPGGSLRLSCAASGFTFSAYAMSWVRQAPGKGRELVASISRTGDGTYYADGMKGRFTISRDNAENTVSLQINSLKPEDTAIYYCGAGINPTKYWGQGTQVTVSS

Each binder was assayed against T1, human TfR ectodomain fused to a mouse IgG1 Fc fragment (human, UniProt P02786 89-760) (assay: SPR, kinetic).
T1 construct: extracellular domain; ectodomain fused to the N-terminal end of the Fc, made in-house; not shown: mouse IgG1 Fc fragment
Experimental: (§1) Binding properties of some VHHs were also evaluated using Surface Plasmon Resonance (SPR) experiments. The human, mouse and rhesus monkey TfR (having respectively GeneBank number NM_003234.2, NM_011638, NC_041755.1) ectodomains were fused to the N-terminal end of a mouse IgG1 Fc fragment and the recombinant proteins were produced and purified in-house. Interaction of VHHs with the receptors was tested using a Biacore T200 (GE Healthcare). Receptors were immobilized on an HC 1500M or a CM5 sensor chip (Xantec) either directly or on an anti-mouse IgG previously immobilized. VHHs were injected over flowcell by using the single-cycle kinetic or the multiple-cycle kinetic methods.

T1 sequence (P02786 89-760): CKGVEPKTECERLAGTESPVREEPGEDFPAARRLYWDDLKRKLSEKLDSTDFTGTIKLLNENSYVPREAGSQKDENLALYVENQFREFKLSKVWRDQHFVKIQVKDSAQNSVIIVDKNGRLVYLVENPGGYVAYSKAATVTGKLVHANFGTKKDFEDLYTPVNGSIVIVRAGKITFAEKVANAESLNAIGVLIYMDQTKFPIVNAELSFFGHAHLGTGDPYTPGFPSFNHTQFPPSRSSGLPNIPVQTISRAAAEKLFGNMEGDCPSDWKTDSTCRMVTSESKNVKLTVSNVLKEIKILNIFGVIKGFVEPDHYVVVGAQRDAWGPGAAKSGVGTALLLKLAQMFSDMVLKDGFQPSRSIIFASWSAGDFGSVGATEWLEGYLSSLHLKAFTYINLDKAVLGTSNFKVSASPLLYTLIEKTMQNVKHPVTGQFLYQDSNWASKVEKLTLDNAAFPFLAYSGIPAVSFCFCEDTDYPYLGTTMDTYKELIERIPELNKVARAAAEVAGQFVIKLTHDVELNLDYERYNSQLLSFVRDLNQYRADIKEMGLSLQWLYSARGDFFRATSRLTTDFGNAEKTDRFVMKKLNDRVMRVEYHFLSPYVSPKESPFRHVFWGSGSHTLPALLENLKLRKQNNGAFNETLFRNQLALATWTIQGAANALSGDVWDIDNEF

Binder	Kd [nM]	koff [s⁻¹]	kon [M⁻¹ s⁻¹]
B1	0.505	3.38e-05	66900
B2	475		698000
B3	0.652	0.000758	1.16e+06
B4	44.6	0.00726	188000
B5	57.7	0.00554	108000
B6	0.395	0.000311	790000
B7	0.846	0.000982	1.17e+06
B8	0.252	0.000176	700000
B9	1.25	0.00189	1.51e+06
B10	0.559	0.00249	5.9e+06
B11	0.545	0.000752	1.39e+06

These binders were tested against T2, mouse TfR ectodomain fused to a mouse IgG1 Fc fragment (mouse, UniProt Q62351 89-763) (assay: SPR, kinetic).
T2 construct: extracellular domain; not shown: mouse IgG1 Fc fragment
Experimental: as §1

T2 sequence (Q62351 89-763): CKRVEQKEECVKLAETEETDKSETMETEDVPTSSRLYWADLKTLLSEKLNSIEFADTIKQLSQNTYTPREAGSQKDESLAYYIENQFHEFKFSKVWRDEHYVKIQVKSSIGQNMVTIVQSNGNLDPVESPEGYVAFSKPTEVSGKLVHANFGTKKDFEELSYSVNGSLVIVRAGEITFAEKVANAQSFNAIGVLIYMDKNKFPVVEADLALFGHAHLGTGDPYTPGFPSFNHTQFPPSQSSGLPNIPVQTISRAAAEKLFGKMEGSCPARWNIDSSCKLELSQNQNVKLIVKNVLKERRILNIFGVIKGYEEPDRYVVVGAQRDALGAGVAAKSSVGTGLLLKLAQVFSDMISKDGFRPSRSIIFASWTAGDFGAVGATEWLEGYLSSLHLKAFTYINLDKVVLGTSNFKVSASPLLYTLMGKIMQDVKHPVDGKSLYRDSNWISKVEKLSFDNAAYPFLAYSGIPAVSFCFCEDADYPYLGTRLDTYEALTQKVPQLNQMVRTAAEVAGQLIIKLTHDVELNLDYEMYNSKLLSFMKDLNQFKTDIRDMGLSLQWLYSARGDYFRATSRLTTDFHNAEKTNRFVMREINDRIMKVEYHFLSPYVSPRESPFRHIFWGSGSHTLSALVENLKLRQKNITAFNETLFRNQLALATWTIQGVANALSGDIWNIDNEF

Binder	Kd [nM]	koff [s⁻¹]	kon [M⁻¹ s⁻¹]
B1	193	0.0343	178000
B12	207	0.102	493000
B13	83.5	0.0467	647000
B6	61.3	0.0218	355000
B14	89.7	0.0532	652000
B7	143	0.0675	472000
B8	70.6	0.0563	797000
B15	109	0.0579	583000
B16	40.8	0.0197	524000

These binders were tested against T3, rhesus monkey TfR ectodomain fused to a mouse IgG1 Fc fragment (rhesus monkey, UniProt I0FKY7 89-760) (assay: SPR, kinetic).
T3 construct: extracellular domain; not shown: mouse IgG1 Fc fragment
Experimental: as §1

Binder	Kd [nM]	koff [s⁻¹]	kon [M⁻¹ s⁻¹]
B4	24.6	0.0178	903000
B5	22.2	0.0109	662000
B12	83.9	0.0278	332000

Each binder was assayed against T1, human TfR ectodomain fused to a mouse … (assay: SPR, at equilibrium).
Experimental: as §1

Binder	Kd [nM]
B2	480
B4	86.8
B5	224
B17	2440

What follows are binders tested against T2, mouse TfR ectodomain fused to a mouse … (assay: SPR, at equilibrium).
Experimental: as §1

Binder	Kd [nM]
B1	206
B12	379
B13	98.8
B6	74.7
B14	91.8
B7	240
B8	61.1
B15	108
B16	40.5

These binders were tested against T3, rhesus monkey TfR ectodomain fused to a … (assay: SPR, at equilibrium).
Experimental: as §1

Binder	Kd [nM]
B4	38.1
B5	27.8

What follows are binders tested against T4, mouse transferrin receptor (mTfR) fused to EGFP, on CHO cells (mouse, UniProt Q62351 1-763) (assay: flow cytometry, CHO cells).
T4 construct: whole, on cells; also called mouse TfR; CHO-mTfR-EGFP; not shown: EGFP
Experimental: The binding properties of VHHs with affinity for the TfR from different species (i.e., human (h), mouse (m) and rhesus monkey (rh)) were tested using flow cytometry, and apparent affinities (Kd app) were determined. All experiments were performed in 96 well plates using 2×10⁵ cells/well, at 4° C. with shaking. CHO cell lines expressing the hTfR, mTfR or rhTfR fused to EGFP were saturated with PBS/BSA 2% solution during 30 min to avoid nonspecific binding, followed by incubation with purified VHHs at increasing concentrations for 1 hr. After one wash in PBS/BSA 2%, cells were incubated for 1 hr with an anti-6His tag antibody (mouse), washed twice with PBS/BSA 2%, and incubated for 1 hr with an Alexa647-conjugated anti-mouse secondary antibody. After two last washes in PBS/BSA 2%, cells were fixed by incubation for 15 min with PBS/PFA 2%, washed once with PBS and finally resuspended in PBS. Fluorescence levels were assessed using an Attune NxT flow cytometer (Thermo Fisher Scientific). Experimental data were fitted with GraphPad Prism® software using a nonlinear fit to determine the apparent Kd constants. […] Table 5 hereafter summarizes apparent Kd obtained for the tested VHHs.

T4 sequence (Q62351 whole entry, the tested form may be a part): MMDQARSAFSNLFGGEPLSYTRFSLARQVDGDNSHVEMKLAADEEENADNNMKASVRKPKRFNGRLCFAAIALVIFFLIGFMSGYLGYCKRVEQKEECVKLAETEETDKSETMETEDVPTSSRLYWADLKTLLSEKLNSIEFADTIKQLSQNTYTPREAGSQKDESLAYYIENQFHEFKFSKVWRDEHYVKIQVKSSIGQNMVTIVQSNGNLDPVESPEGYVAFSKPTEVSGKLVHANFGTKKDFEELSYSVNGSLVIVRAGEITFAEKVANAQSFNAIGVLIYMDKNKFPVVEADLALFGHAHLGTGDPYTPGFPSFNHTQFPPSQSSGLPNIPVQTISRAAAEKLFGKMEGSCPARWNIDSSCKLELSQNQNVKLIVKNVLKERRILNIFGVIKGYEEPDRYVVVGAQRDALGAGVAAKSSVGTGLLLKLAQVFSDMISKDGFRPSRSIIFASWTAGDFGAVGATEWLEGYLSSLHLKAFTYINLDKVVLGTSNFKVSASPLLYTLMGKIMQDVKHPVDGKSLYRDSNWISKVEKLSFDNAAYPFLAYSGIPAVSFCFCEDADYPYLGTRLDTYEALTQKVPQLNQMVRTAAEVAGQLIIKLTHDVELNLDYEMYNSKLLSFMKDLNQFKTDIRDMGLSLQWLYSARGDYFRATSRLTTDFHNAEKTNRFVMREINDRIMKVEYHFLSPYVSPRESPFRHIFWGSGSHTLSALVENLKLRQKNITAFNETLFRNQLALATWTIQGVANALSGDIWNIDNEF

Binder	binding result
B2	no binding
B3	no binding
B4	no binding
B5	no binding
B17	no binding
B9	no binding
B10	no binding
B11	no binding

The binders below were run against T5, human transferrin receptor (hTfR) fused to EGFP, on CHO cells (human, UniProt P02786 1-760) (assay: apparent Kd, flow cytometry, CHO cells).
T5 construct: whole, on cells; also called human TfR; CHO-hTfR-EGFP; not shown: EGFP from pEGFP-C1 vector, fused to the N-terminal (intracellular) end of hTfR
Outline: (§2)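 CHO cells expressing TfR-EGFP fusions, blocked in PBS/BSA 2%, then incubated with increasing VHH concentrations for 1 hr at 4° C. Bound VHH detected via anti-6His antibody and Alexa647 secondary, cells PFA-fixed, read by flow cytometry. Apparent Kd from nonlinear fit.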

T5 sequence (P02786 whole entry, the tested form may be a part): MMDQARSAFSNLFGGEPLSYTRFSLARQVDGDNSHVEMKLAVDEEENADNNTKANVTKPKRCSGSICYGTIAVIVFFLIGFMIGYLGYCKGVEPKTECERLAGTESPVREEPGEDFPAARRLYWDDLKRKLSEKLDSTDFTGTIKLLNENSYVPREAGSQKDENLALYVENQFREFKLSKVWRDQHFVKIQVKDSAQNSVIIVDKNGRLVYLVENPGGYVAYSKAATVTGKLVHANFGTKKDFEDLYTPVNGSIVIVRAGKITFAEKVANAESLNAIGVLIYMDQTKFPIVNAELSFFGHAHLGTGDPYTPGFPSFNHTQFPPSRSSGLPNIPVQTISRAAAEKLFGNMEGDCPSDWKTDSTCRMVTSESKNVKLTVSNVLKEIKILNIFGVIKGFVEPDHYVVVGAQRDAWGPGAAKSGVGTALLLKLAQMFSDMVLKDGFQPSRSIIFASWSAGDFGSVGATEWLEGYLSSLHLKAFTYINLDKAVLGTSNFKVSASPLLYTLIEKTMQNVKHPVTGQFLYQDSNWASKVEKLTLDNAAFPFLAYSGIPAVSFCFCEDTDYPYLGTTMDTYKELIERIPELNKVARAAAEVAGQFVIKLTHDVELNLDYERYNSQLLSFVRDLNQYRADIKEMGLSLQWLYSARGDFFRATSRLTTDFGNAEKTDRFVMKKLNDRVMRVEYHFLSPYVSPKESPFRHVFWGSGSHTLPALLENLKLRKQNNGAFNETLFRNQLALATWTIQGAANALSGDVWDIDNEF

Binder	Kd [nM]
B1	36
B2	321
B3	1.9
B4	4.1
B5	11
B12	3.1
B6	3.4
B14	3.1
B7	2.9
B8	3.7
B15	3.2
B16	3.4
B17	630
B9	3.1
B11	2.9

These binders were tested against T4, mouse transferrin receptor (mTfR) fused … (assay: apparent Kd, flow cytometry, CHO cells).
Outline: as §2

Binder	Kd [nM]
B1	52
B12	197
B13	138
B6	197
B14	179
B7	207
B8	207
B15	136
B16	47

Each binder was assayed against T6, rhesus monkey transferrin receptor (rhTfR) fused to EGFP, on CHO cells (rhesus monkey) (assay: apparent Kd, flow cytometry, CHO cells).
T6 construct: whole, on cells; also called rhesus monkey TfR
Outline: as §2

Binder	Kd [nM]
B1	19
B2	971
B4	3.2
B5	3.7
B12	178
B13	7
B6	20
B14	3.4
B7	66
B8	10
B15	5.7
B16	4.6
B10	4230
